Experiments:
[1] = molecular target: T1, amyloid-β peptide Aβ1-40 (wild-type) (UniProt P05067 672-711); test: SPR (BIACORE X), LRP-1 cluster immobilized on CM5 chip, Aβ in solution; apparent Kd from koff/kon
T1 construct: domain: Aβ1-40; Soluble monomeric synthetic peptide; used 125I-labeled as tracer in capillary and in vivo studies; also called Aβ40; wild-type Aβ1-40
Method: (§1) Incubation conditions as described under Materials and Methods. […] Apparent affinity constants K_{d(app)} were deduced from the ratios of k_{off(app)}/kₒₙ₍ₐₚₚ₎ as described under Materials and Methods. […] K_{d(app)} (mean±SD) values were determined from 6 to 9 different concentrations of Aβ and 3 to 5 independent measurements at each concentration.
(§2) (as described in Westein et al., 2002). […] Ligand solution was replaced with buffer to initiate dissociation. The data were analyzed to calculate apparent association rate constants kₒₙ₍ₐₚₚ₎ and apparent dissociation rate constants k_{off(app)} using a single-site binding model (as described in Westein et al., 2002). Apparent affinity constants K_{d(app)} were inferred from the ratio k_{off(app)}/kₒₙ₍ₐₚₚ₎. Data are based on three to five measurements using six to nine different concentrations for each measurement. Data are presented as the mean±SEM. Analysis was performed using BIACORE X biosensor system (Uppsala, Sweden) and BIA evaluation 3.0 software (Biocore, Sweden).

[2] = molecular target: T2, amyloid-β peptide Aβ1-42 (wild-type) (UniProt P05067 672-713); test: as above
T2 construct: domain: Aβ1-42; Synthetic peptide; also called Aβ42
Method: as §1, §2

Kd [1] | Kd [2] | Binder
0.57 nM | 3 nM | recombinant LRP-1 fragment encompassing cluster II (receptor, UniProt Q07954 805-1184, looked up, domain: cluster II; Produced in stably transfected baby hamster kidney cells as described in Westein et al., 2002; immobilized on CM5 chip; also called LRP-1 cluster II; LRP-1 II) NKCRVNNGGCSSLCLATPGSRQCACAEDQVLDADGVTCLANPSYVPPPQCQPGEFACANSRCIQERWKCDGDNDCLDNSDEAPALCHQHTCPSDRFKCENNRCIPNRWLCDGDNDCGNSEDESNATCSARTCPPNQFSCASGRCIPISWTCDLDDDCGDRSDESASCAYPTCFPLTQFTCNNGRCININWRCDNDNDCGDNSDEAGCSHSCSSTQFKCNSGRCIPEHWTCDGDNDCGDYSDETHANCTNQATRPPGGCHTDEFQCRLDGLCIPLRWRCDGDTDCMDSSDEKSCEGVTHVCDPSVKFGCKDSARCISKAWVCDGDNDCEDNSDEENCESLACRPPSHPCANNTSVCLPPDKLCDGNDDCGDGSDEGELCDQ
1.24 nM | 10.1 nM | recombinant LRP-1 fragment encompassing cluster IV (receptor, domain: cluster IV; Produced in stably transfected baby hamster kidney cells as described in Westein et al., 2002; immobilized on CM5 chip; also called LRP-1 cluster IV; LRP-1 IV) not shown
